The nature of this data set: protease stability score; higher = more stable; yeast display proteolysis, trypsin and chymotrypsin.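 Also: log10 excess protease needed over predicted unfolded state with 0 meaning unfolded.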
On to “DDHVLREVMKSWKDNDWKTLQDQVDPNARMKVGDNKVSGREQIEDLLQHLQDRIDHVEIKSMQHQGDKANFRFQFVVNGQRVDVVARVKAHNGKIQEWQVEVRNDELKEQLERAQK”, for which the protease stability score stood at 0.628.

Consider “DEDSQAHEIAQHFIELLKHNNEDDMKKYIDPNAKAQYGDKRVHGRNHVIRTFKEMRDKVDHISVEIKSIKANGEKISADMVVTFNVNGKNETVQYVLIFQVQGERVRVTHVKID”, for which the protease stability score is 0.796.

“DEDEYAHQVAQELRKAMETGDSDRIARLFDENAELRVGDKVWHGRDQIRKYWHEWLRRADTVDVKIDEVDVEGDKARAHIRVRAEDNGRHQEFTVKMTLKNKNGRAKITSMHVS” came in with a protease stability score of 1.57.

“DEEHELDMARKMFEAVKQGDEEEVQRNAPPDVRMEIGDRTYHGREQVRKAAKEFQKRVDHMQLDSVKLHNGDVHAKVILNINGKNNDVVVQIHIDNGRITELRFKTS” registered a protease stability score of -0.06.

As for “DHHDRKLFKHLITALRDGDEDKVKKNVDPNVKIDIGDTTWNGREQWAKDVREKREEMRVDIKLKRLTASNGRVTAKLRVRNKHDGRPHQHEFTVEFRRSNGRWKEIHVDDDK”, the protease stability score is -0.008.

With “DEEALKNVKENLEDGDWDNLAKQADENATWVYGEKRVHGRRDLKKYAEAMKRQIDHWSIRSITTRGNKASVNAEVQVNGHRRSFHIEVEVENGHIKHWNMNFTDPTDERKVLKILE”, the protease stability score is -0.017.

The sequence “EDDAITRWEELERQQETGNEEKAQEMVDPNVKMRYGDDNFHGREEYRKLVHKIRKNWREDVKDVRFEDHGEEIKVEYRVHQDINGKPVNADVTAEAQMSNGRLKKFVLRFSETQEKEIES” had a protease stability score of 0.351.

Sequence “DDDQSRKLKKLFDNNNWDTLQDNADKNANIEVGNKELHGREDAEQLSEKFRDQVDHLTIESIDISGDRVIVTFVVNVNGQRVKYRVVVEAHNGRVKRMRFEFTNPEERKQYDEQLG” showed a protease stability score of 0.899.

In turn, “DEKEKLKQLARKFHKAMQTGDEDELKKNVDENVRADYGDRRYHGSEELAKWLREMKTKVDHLSMTIKDIRVKGDRAEIELEMTFDHNGRQETRQFTLQAQVHNGSLKIVQIRQS” registered a protease stability score of 1.32.

On to “DHEDRAKDMLRRYEEALKSGNPDEARKLADEDVNFNIGDKRYRGRDDLATLVKQIRDSADHISITLETFTVQGNTITMDVSVVVDVNGKHISRRYNIIAQVDNGTLKLKSVQEH”, for which the protease stability score is -0.015.

Sequence “DEKQDKHYKKMMDEGDWKHFANNADPNARVDIGDKEYHGREQVNKALRRISEQADDFRVHDVQVENGRVRADVEFHVNGRSLKVDIRAVLHNGEVTHFHMSVTSEEVKQMLREIFD” yielded a protease stability score of 0.289.

Consider “DEQTHAEELARNFVTAIRTNNDQDIRDLFDKDARVEVGDKTIHGRENIARSIITIAKRVDSVDIRIQHVEVQGDKINIKMERRYDHNGQEHKKDLTMVARLTNGHMRIKVVKMD”, for which the protease stability score worked out at 0.885.

In turn, “DDEANKTAHELVRILQTGDDESFEKMVDPNVKVVIGDRTFKGSSEVRDYLRKRKENIHEDLQVKHVSASGNKAHLDLRFRNDKNGRPQERRLELDVVFHNGKVKNVVYHWDG” came in with a protease stability score of 1.39.

Sequence “DEDKMLKIAQEMAEAVVNGNVEQMKKQAHEGVQVHVGDEEVHGPDQLEEYVKKFKDQGVEVHYKETEHKGDTVTLKTTAVLGDAQVEFEAHYVVKGDKLQRFEVKLNKEQLKDFRKS” registered a protease stability score of 0.242.

“DEDKMKEIAKKFMDYLVNGHADEVRKMGKEGVRVHVGDTTIQGPDQLKEYVKKFKDQGVHNEYKEEEVKGDTITMHTKAQLGNAEVDFEVHYVVKGDKVEKFEVKTDKKQQEKFKKS” registered a protease stability score of -0.352.

“DDKDVEKAVRVMQTNDPDKYERMLDEDVSMVVGDQTYHGRETVNKVYKHYLERVDHIKITRYTIRNGVATVRYVVEWNGKSADVVVHVEVHNGRAKRFEYDVRDSEDKKNMEEMIK” returned a protease stability score of 0.358.

“DEHVLRQVEEWLHNVQTGDEDRLIELVDPNARVEIGDKVIHGMHRMARDLRRKRENMDINIRDYRVQVRGDKARVDIEEQVHHNGRPNSRRFEIQVDADNGRVKQIKWQSES” returned a protease stability score of 0.125.

As for “DEESRRKQAQEFNENLEQGNFEELMKLLDPNAHIIIGEKEVKGREDIRKQQEEDQRRIDHVQIQSVTAHGDKIRALIRFTVNGQQTEVHVVLSFHNGRVKEMKIHTK”, the protease stability score is -0.324.

In turn, “DQDHLRELVHTFNRLLEQGNFDELANMFDKNARVDVGDKSYHGQEQVRTWFKHLRQRVDHFHVKHYKVRGDEATIHVIMDVNGQKRNVTVRLSFSNGRADHIQIDPDHKQELDK” yielded a protease stability score of 1.56.

“DEDALTRIEDAAKHMNEGNFERYADMADPNAHVNIGDKTYQGRESLKHLMQEQRERWEFKLDVRRVDQDGEKAVVTAKVNQKHNGKPDTKTVYIYVSWKNGRAQEIEVRQDS” returned a protease stability score of 0.319.

The sequence “DDENRRFAERLMKVWRTNNEEDARTLFDKDVRFEIGDKVLHGKEQYAQSVRDIKKEMRFDARVRSIDVRGEKVVVLYDVEVQHNGRPQTKQVIFIANVHNGRIKEARVEDTQ” yielded a protease stability score of 0.271.

As for “DEHNYTILQEIWEALKTNNKERFDELADPNARFQVGDKEFHGMETAARHLIRRHTEMRLDMKVDDYRLNGDHLSVDAKVRFRVNGQPNHYQMTLHAQIQGDKLKRMVWRIPESVLERIKS”, the protease stability score was 0.66.

Turning to “EEEVEKAAERVAEVMKDNNPERVEELFDPNAHITVGDRTLHGREELSKHYKTMTDQWRIQIDRFSVEDHGSTVVIRIDFEADHDGRPEKREVIIKLSVSNGRVSWAIFKVDQ”, the protease stability score was 0.734.

“DEELQENAEHLVKAMNKGDREEISRQVDKNASVEIGDQELHGREDIRRFFHEVHEEMRFHIEIKTVDVKGNEVTVHAEAENDDNGRPQTNEVDIDIKVKNGKITSMRIQYNS” registered a protease stability score of -0.539.

“DDEIWSQIEHLLEIFKTGDEERYREQVDPNAKADVGDKKIHGRERIARHLYHLAKNMTIKREVDSVNIQGNEVSASFEVTVNINGNPIRFTVRVNYNFHNGRLQTFEIDVSEDLTKHMDS” displayed a protease stability score of 1.9.

In turn, “DEEEIEDVARKLNTGNKDDMRELADKDVKAQVGDKEVHGRENLVRIMKRLKDQADHIKVDEVHVQGNRIQVRFQMNINGTTFDVSFVAKVSNGHIKYFSLRARDPRLDEKILRILK” had a protease stability score of 0.493.

As for “DETHLKLLEHFFKQWMTGNQQELRSLADPNVEYVYGEHRVRGREQMAKDLVRELHEMTISMRSVTSDIRGDQAVVTVNFQQDKNGEPDEVNVKMRAEVHNGRIKSMNAKFHQ”, the protease stability score is -0.287.

The sequence “DEEFRHKVAKALQSNNEHQLHELMDKDAKMTIGDKTVHGREEIHRVLRRLREQADHWHVSRFKIHNGKIVADVQVHINGQTYHMTITAFARGDRIERLEYTVRDEDLLRKIQRWLG” displayed a protease stability score of 1.97.

Take “DERDVHRIAEQLIKAMQTGDEKKLTDLADKDAEAQIGDKEIHGNHDFSRAMREFRERVDHIELKDIRVHNGHVSVDIVADINGVQLRFVITMEVKNGKVRQLSVEVRDPEQEKTALS”: the protease stability score was 0.9.

On to “DEQKTRQLEEVKKQLEHGNEREAKKNFDENVHINVGDKQIHGMHDAAREMATSWTQIRNEMTITRVHVRGDKIEIRASMVQNTNGRPRKAKVHIDVRINNGKIKRVTVKYDG”, for which the protease stability score stood at 0.181.

Regarding “DTRTDLRVAEKAAKAFHTNDPEKFKKQADPNAKAQYGDKTVHGMEDIVTRLKKFKDRVDHLRLNDIKSTGEKVDLNIQINVNGKNVEAKIDFHVRNGRLKTMKVDPNAVDAYRS”, the protease stability score is -0.19.

On to “DNSELAQQRWRDLRKAISENDPKTARDLFDPNVRIEVGEKTLHGRKAASDFVKEIKKDYDHAYLQVTDVDVQGEHVHAHVVLHAEHNGKTTSVEMEMEAVFQGDKLRVRMMRKS”, for which the protease stability score came to 0.641.

As to “DEKDETVVRKWLEAQHTGNPEEAKHQVDKNVDIRVGDHKVTGRHQIMHNLEQRKKSARFELQLTHLSASNGKVTIQIDVRINYNGRPFTDTLHATAKIKNGQLHSFSVDVDEEYLKKVKS”, the protease stability score was -0.272.

For “DHEAKDVFEELLRRMKSGDEDEMKKLVDKNVRYTVGDKTLHGQEEIARHWYEQVKDMRIDIKVKDIKVHNGRVDVKFTFRHEHNGNPDSDKRRVNVEARNGKMQAVDDQKDS”, the protease stability score turned out to be 0.148.

(Values after the NTF2 design screens of Basanta et al. (2020).)
